Laboratory results published in the supplement of paper PMC12764529.
± gives the half width of the 95% confidence interval.

Columns and labels:
[1] = folding stability dG unfold from trypsin proteolysis; higher = more stable
How it was run: (§1)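 Sequencing followed digestion of designed mini-proteins with trypsin and chymotrypsin, each at 11 concentrations in threefold dilutions together with a no-protease condition. The mini-proteins were under 80 residues, had no cysteine, sat in a PA-tagged cDNA display construct, and were kept only if AlphaFold2 dimer inter-PAE was above 15. From the counts, Bayesian fitting gave K50, and unfolding free energy was derived against a sequence-predicted unfolded-state K50 and a shared folded-state K50, per protease or combined.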

[2] = folding stability dG unfold from chymotrypsin proteolysis; higher = more stable
How it was run: as §1

[3] = folding stability dG unfold (combined trypsin and chymotrypsin); higher = more stable
How it was run: as §1

Sequence	folding stability dG unfold [1]	folding stability dG unfold [2]	folding stability dG unfold [3]
SAGGSAGGSAGYTVSVSVETETLKYLDPETGELVEEETLVRVTITITPPPPAPPNLPENLSAGGSAGGSAGG [r17_493_TrROS_Hall]	9.92 ± 0.962 kJ/mol	11.6 ± 0.213 kJ/mol	11.1 ± 0.962 kJ/mol
SAGGSAGGSAIADEFAEKNPNFQVEVERHTFEMTQYDPDGGWRQHRMFMISITIVPPGDPLSAGGSAGGSAG [r3_358_TrROS]	12.2 ± 0.795 kJ/mol	17 ± 0.837 kJ/mol	14.4 ± 1.26 kJ/mol
SAGGSAGGSAIKKTPNGKYLLKVTFTETYKDKKTGKTYKKTYTKTYVFDKKTNKWKSAEELSAGGSAGGSAG [r3_394_TrROS_Hall]	10.1 ± 0.711 kJ/mol	13.1 ± 0.502 kJ/mol	12.3 ± 1.38 kJ/mol
SAGGSAGGSAKEFVAKVITPDGKPFTIPFGGETEEEAIEKLKEAIKKAFPEYKGVKIELEEKSAGGSAGGSA [r18_434_TrMRF]	3.65 ± 0.238 kJ/mol	2.62 ± 1.13 kJ/mol	3.31 ± 0.837 kJ/mol
SAGGSAGGSAKEIEVRVEKDEETGKYRVTIRVDGKEIEIEVDVPKTLEEAERKAKELLKELSAGGSAGGSAG [r3_104_TrROS_Hall]	10.6 ± 0.343 kJ/mol	11.6 ± 0.146 kJ/mol	11.1 ± 0.276 kJ/mol
SAGGSAGGSAKENEKISIGPEITETGLDILEIKVDTNTKVVTIRFANKIYRIDKNGNISIVSSAGGSAGGSA [r18_445_TrMRF]	7.24 ± 0.272 kJ/mol	10.5 ± 0.544 kJ/mol	9.14 ± 0.711 kJ/mol
SAGGSAGGSAKEYIVRIKVRLKDGEEVEIEITVSEEELEELKKALESLPNIEEAEIEVFPLPSAGGSAGGSA [r18_157_TrROS_Hall]	16 ± 0.46 kJ/mol	14.8 ± 0.18 kJ/mol	15.2 ± 0.276 kJ/mol
SAGGSAGGSAKHRVDDIQPQRHKNPDGEKPVRVRFPDNGQEERIPADNLDDIDVSDGMEVEPSAGGSAGGSA [r18_288_TrROS]	-7.55 ± 1.88 kJ/mol	-2.64 ± 0.184 kJ/mol	-3.58 ± 0.837 kJ/mol
SAGGSAGGSAKIFARAPPGQWYRITVKYKGGNGDKKEHTATIPPNNPPPDIEDVEIEPIPPGSAGGSAGGSA [r18_223_TrROS]	14.9 ± 0.586 kJ/mol	13.2 ± 0.276 kJ/mol	13 ± 1.05 kJ/mol
SAGGSAGGSAKIIVNEDGYLIKITNKNGKEITIEMSEDELKELLKKLGIKKAEIVPLPKEKSAGGSAGGSAG [r3_141_TrROS_Hall]	1.6 ± 0.314 kJ/mol	9.79 ± 0.389 kJ/mol	7.2 ± 0.837 kJ/mol
SAGGSAGGSAKIMIPVDTPEEVKDIAEEFASNGNKEVEPHEDGWVSIEFPNGVPIEIWLPKDSAGGSAGGSA [r18_126_TrROS]	-2.34 ± 1.17 kJ/mol	2.04 ± 0.259 kJ/mol	0.144 ± 1.05 kJ/mol
SAGGSAGGSAKKIKIKIKVYNPETKEVLELEIEVSEEEAEELAKKLAEELEKKGYKIEEVEISAGGSAGGSA [r18_3_TrROS_Hall]	18.7 ± 1.46 kJ/mol	14.5 ± 0.351 kJ/mol	16.1 ± 0.502 kJ/mol
SAGGSAGGSAKKITVEITIEVNGKKYKVKAEIELDEETKTLTIKVTFPDGTEFEFTFKLPEESAGGSAGGSA [r18_239_TrROS_Hall]	16.2 ± 0.92 kJ/mol	23.9 ± 0.544 kJ/mol	24.1 ± 1.72 kJ/mol
SAGGSAGGSAKKIVIKVKPGMTEEEILEEIAKKLGLKPEKIKKIEIERNKDGYLYVTIEIESAGGSAGGSAG [r3_26_TrROS_Hall]	15.3 ± 0.669 kJ/mol	16.2 ± 0.272 kJ/mol	16 ± 0.347 kJ/mol
SAGGSAGGSAKKKKKKKKYKPKPVKIFKIKLKLKLEKTKDGLKLKIEEIEIEEIATLEKGLSAGGSAGGSAG [r3_397_TrROS_Hall]	7.87 ± 0.502 kJ/mol	11.4 ± 0.418 kJ/mol	10.2 ± 1.84 kJ/mol
SAGGSAGGSAKKKKYKVKIKVINENGEIYEIDEIYFDEKTKKIYIKIKNKDGEEKVFEIELDSAGGSAGGSA [r18_370_TrROS_Hall]	10 ± 0.247 kJ/mol	15.7 ± 0.213 kJ/mol	13.6 ± 0.544 kJ/mol
SAGGSAGGSAKKPKKFKITKISTVKNKNGKTYYKLVIEDEKTKKKYVFVFPKNKEEILKALSAGGSAGGSAG [r3_57_TrROS_Hall]	8.39 ± 0.255 kJ/mol	10.6 ± 0.259 kJ/mol	10.2 ± 0.628 kJ/mol
SAGGSAGGSAKKPTAEEILKKLKLPEGAKIVKIEVEYDKKTKKVTIKIEIKVNGKTYTFEIKSAGGSAGGSA [r18_354_TrROS_Hall]	11.8 ± 0.628 kJ/mol	18.4 ± 0.46 kJ/mol	16.5 ± 0.753 kJ/mol
SAGGSAGGSAKKTLTVKPGQTVTVKNKKTGKTYTATVEKDKDGNLTVKLENGKTYTINLKDLSAGGSAGGSA [r18_169_TrROS_Hall]	4.05 ± 0.347 kJ/mol	8.98 ± 0.326 kJ/mol	7.53 ± 0.389 kJ/mol
SAGGSAGGSAKKVVTVPEDATLEEIEELLKSGEKVTVVIHNKETGKTETLEFDSLEELKAASAGGSAGGSAG [r3_362_TrROS_Hall]	2.51 ± 0.301 kJ/mol	8 ± 0.669 kJ/mol	6.39 ± 0.711 kJ/mol
SAGGSAGGSAKKYVLLVTYRHPENGETRTVLVEVETEEEVERAVKELAPPEFDEVKVYVLPASAGGSAGGSA [r18_258_TrMRF]	11.8 ± 0.628 kJ/mol	11.7 ± 0.192 kJ/mol	11.8 ± 0.502 kJ/mol

Sequence	folding stability dG unfold [1]	folding stability dG unfold [2]	folding stability dG unfold [3]
SAGGSAGGSAKMIFVKNEDGTITMFTLNEDGYLTVTTVTLDKKTKKMTVETKTIKLTDPELLSAGGSAGGSA [r18_503_TrROS_Hall]	4.86 ± 0.113 kJ/mol	10.3 ± 0.339 kJ/mol	8.94 ± 0.711 kJ/mol
SAGGSAGGSAKMIIRIRNKNGKIIELTLEEVAKKLGLSKEEMTAEEILKKLKENIEKVEILPSAGGSAGGSA [r18_403_TrROS_Hall]	12.1 ± 0.197 kJ/mol	13.3 ± 0.201 kJ/mol	13 ± 0.293 kJ/mol
SAGGSAGGSAKMVIVNITLKNKDGKEFTISIEADPSVIKNIIKKLFNAKINKIEIYPLSEALSAGGSAGGSA [r18_107_TrMRF]	10.4 ± 0.46 kJ/mol	9.25 ± 0.335 kJ/mol	9.53 ± 0.628 kJ/mol
SAGGSAGGSAKPKPVETVEVTVTGKDGKKYKVTVVYDEKTGKLYVKYNGKIYKVDSLEEALKSAGGSAGGSA [r18_67_TrROS_Hall]	10.2 ± 0.795 kJ/mol	17.2 ± 0.305 kJ/mol	16.2 ± 0.837 kJ/mol
SAGGSAGGSAKPKVVLVEYDEKTGKFKIVFPDGKELEITGLTPEQIKELAKSLGADYVIIESAGGSAGGSAG [r3_78_TrMRF]	14.2 ± 0.502 kJ/mol	17 ± 0.41 kJ/mol	16 ± 0.377 kJ/mol
SAGGSAGGSAKPLKKLVLLLKVKGPFEEVEKILNEEFGVKKIVAFKDPETDEVYALIYLGDPSAGGSAGGSA [r18_275_TrMRF]	9.34 ± 0.218 kJ/mol	12 ± 0.167 kJ/mol	11 ± 0.356 kJ/mol
SAGGSAGGSAKPNKKFKFELVEVKEIEIYDKETNEKVYKISVAKVRLEDGSLLTFISIEEKSAGGSAGGSAG [r3_166_TrROS_Hall]	9.8 ± 0.356 kJ/mol	15.8 ± 0.247 kJ/mol	13.3 ± 0.92 kJ/mol
SAGGSAGGSAKPPVTLTILVKNPETGEWVRLEVEFLPDGTVKITVTNPNGEKYTFTFKLPPSAGGSAGGSAG [r3_61_TrROS_Hall]	15.4 ± 0.753 kJ/mol	23.4 ± 0.669 kJ/mol	23.4 ± 1.13 kJ/mol
SAGGSAGGSAKPRVKIVEVDEEKKRVLVKTEDGEVVELEGLTPEQIEELAKALGADEVELVSAGGSAGGSAG [r3_78_TrROS_Hall]	0.727 ± 0.293 kJ/mol	6.41 ± 0.397 kJ/mol	4.67 ± 0.711 kJ/mol
SAGGSAGGSAKPTYRVLVKNEDGEVLEAEVKVVDGKVEVTVNGKVYTFPKGAKIEIVKIEPVSAGGSAGGSA [r18_144_TrROS_Hall]	14 ± 0.837 kJ/mol	12.2 ± 0.226 kJ/mol	12.9 ± 0.46 kJ/mol
SAGGSAGGSAKTITITVKPEDMTEEELKEKIAEELGIDPEEIEIVKVEKLPNGEVKVTIKIKSAGGSAGGSA [r18_118_TrROS_Hall]	15 ± 0.711 kJ/mol	8.08 ± 0.46 kJ/mol	12.9 ± 0.669 kJ/mol
SAGGSAGGSAKTVVINIKDLKLSKDGKLTVEEIKKRIKELLKKKGIKKVTVKTVEELLKALKSAGGSAGGSA [r18_72_TrROS_Hall]	3.76 ± 0.259 kJ/mol	5.9 ± 0.36 kJ/mol	5.26 ± 0.31 kJ/mol
SAGGSAGGSAKTYEVKITVTNPNGEKKEITLEVEAETEEELLAAIKALAPPGAKVEIEIREVSAGGSAGGSA [r18_60_TrROS_Hall]	18.1 ± 1.17 kJ/mol	15.4 ± 0.314 kJ/mol	16.7 ± 0.544 kJ/mol
SAGGSAGGSAKVKAEIEYDPATGKITIKLITEDERGGKTEEAEITIPIPIPAPPAPPADVDKSAGGSAGGSA [r18_361_TrMRF]	-0.0997 ± 0.502 kJ/mol	7.08 ± 0.628 kJ/mol	5.29 ± 0.502 kJ/mol
SAGGSAGGSAKVKIVIKNENGEEFEIEMSEEELKKKLKPGDKVKIKIEKVNGKLKITIEKESAGGSAGGSAG [r3_86_TrROS_Hall]	4.89 ± 0.502 kJ/mol	8.81 ± 0.669 kJ/mol	8.47 ± 1.17 kJ/mol
SAGGSAGGSAKYILITAPKDNEEKVLEIAEELEKKYGVKLHKVERLPDGTVKALVEIFAPEKSAGGSAGGSA [r18_351_TrMRF]	0.238 ± 0.305 kJ/mol	2.82 ± 0.711 kJ/mol	1.83 ± 0.586 kJ/mol
SAGGSAGGSAKYITIFFWGSVEEALKSIPIPPGFKVEIDNIHRNPDGWMWVMITIEIPPNMKSAGGSAGGSA [r18_510_TrROS]	11.2 ± 0.368 kJ/mol	18.3 ± 0.502 kJ/mol	17.9 ± 0.92 kJ/mol
SAGGSAGGSALDDFKIEEVQYDPDGNTIRFIFKFPGQVWILRIRMPKNGKMEIEWIPADDISAGGSAGGSAG [r3_167_TrROS]	16.6 ± 0.879 kJ/mol	18.2 ± 0.962 kJ/mol	18.3 ± 0.753 kJ/mol
SAGGSAGGSALEIPFEVVDEKDFLLEGDYIVRVAELKNGLRALAIYDPKTGKVLVIVSPGGSAGGSAGGSAG [r3_438_TrMRF]	8.05 ± 0.628 kJ/mol	8.67 ± 0.238 kJ/mol	9.08 ± 0.711 kJ/mol
SAGGSAGGSALKPGEPITIIFLFKEPNGRPYIMVIEIEVNPDGGIKIKGMEMITLEDLDKISAGGSAGGSAG [r3_212_TrROS]	12.4 ± 0.879 kJ/mol	19 ± 0.795 kJ/mol	18.5 ± 1.05 kJ/mol
